According to patent publication US7238491, “Pregnane X receptor method” (SmithKline Beecham Corporation):

Legend:
[1] = target: T1, hPXR/hRXR heterodimer (RXR isoform not stated) (Homo sapiens, UniProt O75469;P19793 O75469:1-434,P19793:1-462); assay: competition; little or no competition at 10- or 50-fold excess in EMSA; settings: tags: none; TNT rabbit reticulocyte lysate
Experimental: (§1) Band Shift Assays hPXR, mPXR1, and hRXR were synthesized in vitro using the TNT rabbit reticulocyte lysate coupled in vitro transcription/translation system (Promega) according to the manufacturer's instructions. Gel mobility shift assays (20 µl) contained 10 mM Tris (pH 8.0), 40 mM KCl, 0.05% NP-40, 6% glycerol, 1 mM DTT, 0.2 µg of poly(dI-dC) and 2.5 µl each of in vitro synthesized PXR and RXR proteins. Competitor oligonucleotides were included at a 10-fold or 50-fold excess. After a 10 min incubation on ice, 10 ng of [^32P]-labeled oligonucleotide was added and the incubation continued for an additional 10 min. DNA-protein complexes were resolved on a 4% polyacrylamide gel in 0.5×TBE (1×TBE=90 mM Tris, 90 mM boric acid, 2 mM EDTA). Gels were dried and subjected to autoradiography at –70° C. The following oligonucleotides were used as either radiolabeled probes or competitors (sense strand is shown):
(§2) In order to determine whether hPXR interacted directly with the CYP3A4 IR6 response element, band shift assays were performed.

mPXR1/hRXR heterodimer [2] = target: T2, mPXR1/hRXR heterodimer (Mus musculus / Homo sapiens, UniProt O54915;P19793 O54915:1-431,P19793:1-462); assay: competition; same profile as hPXR/RXR; little or no competition; settings: tags: none; TNT rabbit reticulocyte lysate
T2 sequence (O54915 whole entry, chain 1 of 2): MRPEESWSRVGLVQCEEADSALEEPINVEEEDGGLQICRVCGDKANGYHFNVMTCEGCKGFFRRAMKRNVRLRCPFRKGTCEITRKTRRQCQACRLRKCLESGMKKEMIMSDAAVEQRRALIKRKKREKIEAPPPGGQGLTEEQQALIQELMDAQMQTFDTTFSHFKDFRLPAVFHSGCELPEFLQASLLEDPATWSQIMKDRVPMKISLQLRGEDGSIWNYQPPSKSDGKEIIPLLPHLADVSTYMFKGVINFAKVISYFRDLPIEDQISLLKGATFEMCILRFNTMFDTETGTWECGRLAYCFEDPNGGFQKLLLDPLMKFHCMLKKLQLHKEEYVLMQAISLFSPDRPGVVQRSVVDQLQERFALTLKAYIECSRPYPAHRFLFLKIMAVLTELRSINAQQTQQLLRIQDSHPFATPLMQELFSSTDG
T2 sequence (P19793 whole entry, chain 2 of 2): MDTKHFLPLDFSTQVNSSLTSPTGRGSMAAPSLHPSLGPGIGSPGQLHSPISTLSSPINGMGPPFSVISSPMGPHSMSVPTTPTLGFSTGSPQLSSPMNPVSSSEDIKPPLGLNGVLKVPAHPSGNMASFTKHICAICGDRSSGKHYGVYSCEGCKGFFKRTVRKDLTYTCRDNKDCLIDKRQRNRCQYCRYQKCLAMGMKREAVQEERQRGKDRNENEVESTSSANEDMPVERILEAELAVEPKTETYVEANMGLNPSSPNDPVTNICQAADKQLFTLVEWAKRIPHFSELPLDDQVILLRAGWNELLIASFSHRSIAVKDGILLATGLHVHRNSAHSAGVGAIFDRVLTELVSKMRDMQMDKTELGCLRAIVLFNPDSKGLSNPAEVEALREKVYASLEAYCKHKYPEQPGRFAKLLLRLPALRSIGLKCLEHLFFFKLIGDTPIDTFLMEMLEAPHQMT
Experimental: as §1, §2

hRXR = hRXR (Homo sapiens, UniProt P19793 P19793:1-462); assay: EMSA; RXR alone without PXR; settings: tags: none; TNT rabbit reticulocyte lysate; label: 32P (probe)
Chain of hRXR (P19793 whole entry, one chain of several): as the sequence (P19793 whole entry, chain 2 of 2) above
Experimental: as §1, §2

[3] = target: T1, hPXR/hRXR heterodimer (RXR isoform not …); assay: EMSA; 10 mM Tris pH 8.0, 40 mM KCl, 0.05% NP-40, 6% glycerol, 1 mM DTT, poly(dI-dC), on ice; self-competed by unlabeled IR6; settings: tags: none; TNT rabbit reticulocyte lysate; label: 32P (probe)
Experimental: as §1, §2

mPXR1/hRXR heterodimer [4] = target: T2, mPXR1/hRXR heterodimer; assay: EMSA; same binding profile as hPXR/RXR; settings: tags: none; TNT rabbit reticulocyte lysate; label: 32P (probe)
Experimental: as §1, §2

mPXR1/hRXR heterodimer [5] = target: T2, mPXR1/hRXR heterodimer; assay: competition; same profile as hPXR/RXR; competes with IR6 probe; settings: tags: none; TNT rabbit reticulocyte lysate
Experimental: as §1, §2

[6] = target: T1, hPXR/hRXR heterodimer (RXR isoform not …); assay: competition; efficient competitor of IR6 probe at 10- or 50-fold excess in EMSA; settings: tags: none; TNT rabbit reticulocyte lysate
Experimental: as §1, §2

T1 sequence (O75469 whole entry, chain 1 of 2, canonical isoform): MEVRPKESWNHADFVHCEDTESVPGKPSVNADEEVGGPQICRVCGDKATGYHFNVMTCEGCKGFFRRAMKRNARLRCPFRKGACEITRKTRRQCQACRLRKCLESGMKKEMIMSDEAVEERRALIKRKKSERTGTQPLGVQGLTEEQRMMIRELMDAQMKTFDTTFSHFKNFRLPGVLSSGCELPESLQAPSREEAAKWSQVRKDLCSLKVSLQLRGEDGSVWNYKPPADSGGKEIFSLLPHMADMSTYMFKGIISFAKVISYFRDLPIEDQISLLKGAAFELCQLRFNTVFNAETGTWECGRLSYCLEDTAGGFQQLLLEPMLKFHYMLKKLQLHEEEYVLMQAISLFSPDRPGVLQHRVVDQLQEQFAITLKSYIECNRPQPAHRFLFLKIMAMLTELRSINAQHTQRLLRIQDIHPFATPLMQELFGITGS
T1 sequence (P19793 whole entry, chain 2 of 2, canonical isoform): as the sequence (P19793 whole entry, chain 2 of 2) above

B1: CYP3A4 IR6 m2 (dsDNA)
DNA 1: GATCAATAACAACTCAAAGGAGGTCAGTG
DNA 2: CACTGACCTCCTTTGAGTTGTTATTGATC
B1: no binding [1]; no binding (mPXR1/hRXR heterodimer [2]).

B2: CYP3A4 IR6 m1 (dsDNA)
DNA 1: GATCAATATGTTCTCAAAGGAGAACAGTG
DNA 2: CACTGTTCTCCTTTGAGAACATATTGATC
B2: no binding [1]; no binding (mPXR1/hRXR heterodimer [2]).

B3: CYP3A4 IR6 PXRE (dsDNA)
DNA 1: GATCAATATGAACTCAAAGGAGGTCAGTG
DNA 2: CACTGACCTCCTTTGAGTTCATATTGATC
B3: no binding (hRXR); binds [3]; binds (mPXR1/hRXR heterodimer [4]).

B4: CYP3A1 DR3 PXRE (dsDNA)
DNA 1: GATGCAGACAGTTCATGAAGTTCATCTAGATC
DNA 2: GATCTAGATGAACTTCATGAACTGTCTGCATC
B4: binds (mPXR1/hRXR heterodimer [5]); binds [6].
